The target in the assay is T1, Modified biopolymer 3' (biopolymer 3, 427 amino acids, structure D-B84, with amino groups transformed into … (amino groups of the lysines of peptide D transformed into azide groups (lysine transformation rate 50%); covalently grafted to alkynyl-functionalised glass by click cycloaddition).
T1 construct: In the assay it was grafted to a glass surface through 1,2,3-triazole links; also called POLYM; 3'
T1 chain: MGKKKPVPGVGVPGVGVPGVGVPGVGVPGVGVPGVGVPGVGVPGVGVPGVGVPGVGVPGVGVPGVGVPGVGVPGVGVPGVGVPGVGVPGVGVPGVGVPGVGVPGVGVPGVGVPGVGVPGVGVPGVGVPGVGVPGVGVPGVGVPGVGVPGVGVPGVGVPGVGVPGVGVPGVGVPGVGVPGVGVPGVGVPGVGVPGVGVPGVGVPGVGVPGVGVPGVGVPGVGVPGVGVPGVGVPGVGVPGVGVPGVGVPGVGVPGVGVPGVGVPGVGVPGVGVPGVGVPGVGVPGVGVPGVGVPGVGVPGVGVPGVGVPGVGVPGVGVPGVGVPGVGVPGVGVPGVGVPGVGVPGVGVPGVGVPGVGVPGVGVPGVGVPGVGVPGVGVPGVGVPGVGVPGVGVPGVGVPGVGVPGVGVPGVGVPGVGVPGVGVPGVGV
Description: ToF-SIMS of a glass surface grafted with polymer 3' after immersion in an aqueous solution of polymer 4.

B1: Biopolymer 4 (371 amino acids), structure B14-A2-B14 (other)
chain: MESLLPVPGVGVPGVGVPGVGVPGVGVPGVGVPGVGVPGVGVPGVGVPGVGVPGVGVPGVGVPGVGVPGVGVPGVGVPGIGVPGIGVPGIGVPGIGVPGIGVPGIGVPGIGVPGIGVPGIGVPGIGAVTGRGDSPASSVPGIGVPGIGVPGIGVPGIGVPGIGVPGIGVPGIGVPGIGVPGIGVPGIGVPGIGVPGIGVPGIGVPGIGVPGIGVPGIGVPGIGVPGIGVPGIGVPGIGAVTGRGDSPASSVPGIGVPGIGVPGIGVPGIGVPGIGVPGIGVPGIGVPGIGVPGIGVPGIGVPGVGVPGVGVPGVGVPGVGVPGVGVPGVGVPGVGVPGVGVPGVGVPGVGVPGVGVPGVGVPGVGVPGVGV
notes: Unmodified polymer 4, adsorbed from aqueous solution onto the surface grafted with polymer 3'; also called POLYM
For B1, the binding result is “binds”.

Values taken from patent US20140227782A1 (UMUVERSIDAD DE VALLADOLID, published 2014).
